Reference: PMC7771244

Key:
[1] = molecular target: 5FW-BPTF (bromodomain of the bromodomain- and PHD finger-containing transcription factor, labelled with 5-fluorotryptophan) (human); assay: NMR titration
[2] = molecular target: 5FW-labeled BRD2(2) (second bromodomain of BRD2) (human); assay: NMR titration
[3] = molecular target: 5FW-labeled BRD4(2) (second bromodomain of BRD4) (human) (UniProt O60885); assay: NMR titration
[4] = molecular target: 5FW-CECR2 (bromodomain of CECR2, labelled with 5-fluorotryptophan) (human); assay: NMR titration
[5] = molecular target: GST-BPTF (glutathione S-transferase-tagged BPTF, not labeled with fluorine) (human); assay: SPR
[6] = molecular target: His9-tagged BPTF bromodomain (human); assay: AlphaScreen or HTRF

| Substance | Kd [1] [µM] | also measured |
| --- | --- | --- |
| H2A.Z I K4ac,K13ac N-terminal tail peptide | 780 | – |
| H2A.Z I K11ac,K13ac N-terminal tail peptide | 1440 | – |
| H2A.Z II K4ac,K7ac N-terminal tail peptide | 660 | – |
| H2A.Z II K4ac,K11ac N-terminal tail peptide | 760 | – |
| H2A.Z II K4ac,K13ac N-terminal tail peptide | 790 | – |
| H2A.Z II K7ac,K11ac N-terminal tail peptide | 780 | – |
| H2A.Z II K11ac,K13ac N-terminal tail peptide | 790 | – |

Substances with a lower Kd [1], results first:

| Kd [1] [µM] | Substance | also measured |
| --- | --- | --- |
| 630 | H2A.Z I K4ac,K15ac N-terminal tail peptide | – |
| 520 | H2A.Z I K7ac,K13ac N-terminal tail peptide | Kd [2]: 680 µM; fold higher affinity than for H2A.Z II K7ac,K13ac [2]: 2 fold; fold higher affinity than for H2A.Z II K7ac,K13ac [3]: 2 fold; Kd [4]: 130 µM |
| 430 | H2A.Z II K4ac,K15ac N-terminal tail peptide | – |
| 310 | H2A.Z II K7ac,K13ac N-terminal tail peptide | Kd [5]: 195 µM; IC50 [6]: 830 µM |
